Results taken from the supplement of paper PMC10201428.
± gives the standard deviation of the averaged measurements.

What was measured:
[1] = tested on: VchCAST RNA-guided transposition machinery (E. coli BL21(DE3) host, lacZ target); experiment: relative integration efficiency (T-RL orientation) vs wild-type transposon end (log2 (normalized fold change)); transposon end mutated: right end (5 bp flank + 75 bp right end); higher = more efficient transposition
In short: (§1)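 Pools of 1549 left-end or 1849 right-end barcoded transposon variants were cloned into a pUC57 mini-transposon donor and co-transformed into E. coli BL21(DE3) with a T7-driven effector plasmid carrying a CRISPR array, tniQ-cas8-cas7-cas6 and tnsA-tnsB-tnsC. Plating used 0.1 mM IPTG at 37°C for 18 h, and input plasmids and genomic integration junctions were PCR-amplified for Illumina sequencing, with two biological output replicates and four reference barcodes. Relative integration efficiency is the log-transformed fold change of output over input barcode abundance, normalised to the reference barcodes.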

[2] = tested on: VchCAST RNA-guided transposition machinery (E. coli BL21(DE3) host, lacZ target); experiment: relative integration efficiency (T-LR orientation) vs wild-type transposon end (log2 (normalized fold change)); transposon end mutated: right end (5 bp flank + 75 bp right end); higher = more efficient transposition
In short: as §1

Row | Sequence | relative integration efficiency (log2) [1] | relative integration efficiency (log2) [2]
1 | ACATTTGTTGATACAACCATAAAATGATAATTATAATTATCATTTTATGGTTGTCACAACCATAAAATGATAATTACTCTGATCATAGTCAGACCAACATTGCTACGACCCGTATTCGCACCGACAC | -3.2 ± 0.33 | -1.19 ± 0.18
2 | ACATTTGTTGATACAACCATAAAATGATAATTATAATTATCATTTTATGGTTGTCATAATTATCATTTTATGGTTGCTCTGATCATAGTCAGACCAACATTGCTACGACCCGTATTCGCACCGACAC | -2.61 ± 0.67 | 0.158 ± 0.76
3 | ACATTTGTTGATACAACCATAAAATGATAATTCAACCCATAAATTGATAATTATCACACCCATAAATTGATATTGCCTCTGATCATAGTCAGACCAACATTGCTACGACCCGTATTCGCACCGACAC | 0.0959 ± 0.067 | 0.119 ± 0.3
4 | ACATTTGTTGATACAACCATAAAATGATAATTCACAAACGCCCGGTCGCCGGCGACACAAACGCCCGGTCGCGGTAAGAGGATCATAGTCAGACCAACATTGCTACGACCCGTATTCGCACCGACAC | -1.9 ± 0.14 | 1.4 ± 0.079
5 | ACATTTGTTGATACAACCATAAAATGATAATTCACACCATAAATTGATAATTATCACACCCATAAATTGATATTGCCTCTGATCATAGTCAGACCAACATTGCTACGACCCGTATTCGCACCGACAC | -0.218 ± 0.014 | -0.473 ± 0.22
6 | ACATTTGTTGATACAACCATAAAATGATAATTCACCCATAAATTGATAATTATCACACCCACATTTAACTATAACGCTCTGATCATAGTCAGACCAACATTGCTACGACCCGTATTCGCACCGACAC | -2.03 ± 0.22 | 1.31 ± 0.058
7 | ACATTTGTTGATACAACCATAAAATGATAATTCACCCATAAATTGATAATTATCACACCCATAAATTGATATTGCCTCTGATCATAGTCAGACCAACATTGCTACGACCCGTATTCGCACCGACACT | -1.27 ± 0.026 | -0.727 ± 0.39
8 | ACATTTGTTGATACAACCATAAAATGATAATTCACCCATAAATTGATAATTATCACACCCCAATTTAACTATAACGCTCTGATCATAGTCAGACCAACATTGCTACGACCCGTATTCGCACCGACAC | -1.88 ± 0.17 | 1.7 ± 0.066
9 | ACATTTGTTGATACAACCATAAAATGATAATTCACCCATCAATTGATAATTATCACACCCCAATTTAACTATAACGCTCTGATCATAGTCAGACCAACATTGCTACGACCCGTATTCGCACCGACAC | -3.27 ± 0.064 | -0.128 ± 0.16
10 | ACATTTGTTGATACAACCATAAAATGATAATTCACCCCTAAATTGATAATTATCACACCCACATTTAACTATAACGCTCTGATCATAGTCAGACCAACATTGCTACGACCCGTATTCGCACCGACAC | -3.72 ± 0.048 | -0.17 ± 0.1
11 | ACATTTGTTGATACAACCATAAAATGATAATTCCACCCATAAATTGATAATTCTCACACCCATAAATTGATATTGACTCTGATCATAGTCAGACCAACATTGCTACGACCCGTATTCGCACCGACAC | -0.563 ± 0.1 | -0.163 ± 0.16
12 | ACATTTGTTGATACAACCATAAAATGATAATTCCACCCATACATTGATAATTATCACACCCAATTTAACTATAACGCTCTGATCATAGTCAGACCAACATTGCTACGACCCGTATTCGCACCGACAC | -2.42 ± 0.38 | 0.785 ± 0.032
13 | ACATTTGTTGATACAACCATAAAATGATAATTCCACCCCTAAATTGATAATTATCACACCCAATTTAACTATAACGCTCTGATCATAGTCAGACCAACATTGCTACGACCCGTATTCGCACCGACAC | -3.1 ± 0.3 | -0.0192 ± 0.33
14 | ACATTTGTTGATACAACCATAAAATGATAATTCCACCCCTACATTGATAATTATCACACCCAATTTAACTATAACGCTCTGATCATAGTCAGACCAACATTGCTACGACCCGTATTCGCACCGACAC | -3.18 ± 0.52 | 0.35 ± 0.091
15 | ACATTTGTTGATACAACCATAAAATGATAATTTCACCCATAAATTGATAATTTTCACACCCATAAATTGATATTGGCTCTGATCATAGTCAGACCAACATTGCTACGACCCGTATTCGCACCGACAC | -0.335 ± 0.13 | -0.0323 ± 0.56
16 | ACATTTGTTGATACAACCATAAAATGATAATTTGACCCATAAATTGATAATTATCACACCCATAAATTGATATTGCCTCTGATCATAGTCAGACCAACATTGCTACGACCCGTATTCGCACCGACAC | -0.692 ± 0.19 | -0.216 ± 0.13
17 | ACATTTGTTGATACAACCATAAAATGATAATTTGTGCCATAAATTGATAATTATCACACCCATAAATTGATATTGCCTCTGATCATAGTCAGACCAACATTGCTACGACCCGTATTCGCACCGACAC | -1.7 ± 0.25 | -1.18 ± 0.14
18 | ACATTTGTTGATACAACCATAAAATGATACACCCATAAATTGATAATTATCACACCCATAAATTGATATTGCCTCTGATCATAGTCAGACCAACATTGCTACGACCCGTATTCGCACCGACACTGAC | -4.54 ± 0.12 | -2.04 ± 0.42
19 | ACATTTGTTGATACAACCATAAAATGATACGGCACAAACGCCCGGTCGCCGGCGACACAAACGCCCGGTCGCGGTAAGAGGATCATAGTCAGACCAACATTGCTACGACCCGTATTCGCACCGACAC | -2.2 ± 0.14 | 0.976 ± 0.29
20 | ACATTTGTTGATACAACCATAAAATGATACGGCCACCCATAAATTGATAATTATCACACCCATAAATTGATATTGCCTCTGATCATAGTCAGACCAACATTGCTACGACCCGTATTCGCACCGACAC | -0.7776 ± 0.00016 | -0.393 ± 0.37
21 | ACATTTGTTGATACAACCATAAAATGATACGGCCACCCATAAATTGATACGGCTCACACCCATAAATTGATAGGTACTCTGATCATAGTCAGACCAACATTGCTACGACCCGTATTCGCACCGACAC | -1.54 ± 0.28 | 0.469 ± 0.35
22 | ACATTTGTTGATACAACCATAAAATGATACGTACACCCATAAATTGATAATTATCACACCCATAAATTGATATTGCCTCTGATCATAGTCAGACCAACATTGCTACGACCCGTATTCGCACCGACAC | -0.82 ± 0.068 | -0.504 ± 0.23
23 | ACATTTGTTGATACAACCATAAAATGATACTTACACCCATAAATTGATACTTATCACACCCATAAATTGATAGTGCCTCTGATCATAGTCAGACCAACATTGCTACGACCCGTATTCGCACCGACAC | -0.987 ± 0.027 | -0.0216 ± 0.18
24 | ACATTTGTTGATACAACCATAAAATGATATAATCACCCATAAATTGATAATTATCACACCCATAAATTGATATTGCCTCTGATCATAGTCAGACCAACATTGCTACGACCCGTATTCGCACCGACAC | -0.575 ± 0.093 | -0.788 ± 0.69
25 | ACATTTGTTGATACAACCATAAAATGATATAATCACCCATAAATTGATATAATTCACACCCATAAATTGATAAACGCTCTGATCATAGTCAGACCAACATTGCTACGACCCGTATTCGCACCGACAC | -1.01 ± 0.15 | 0.045 ± 0.14
26 | ACATTTGTTGATACAACCATAAAATGATATATACACCCATAAATTGATAATTATCACACCCATAAATTGATATTGCCTCTGATCATAGTCAGACCAACATTGCTACGACCCGTATTCGCACCGACAC | -0.131 ± 0.097 | 0.0362 ± 0.23
27 | ACATTTGTTGATACAACCATAAAATGATATTTACACCCATAAATTGATATTTATCACACCCATAAATTGATAATGCCTCTGATCATAGTCAGACCAACATTGCTACGACCCGTATTCGCACCGACAC | -0.257 ± 0.19 | -0.16 ± 0.048
